Experimental data from patent publication US20220040297A1 (Chugai, published 2022).
Where a chain is given by its changes, count along the chain named. Numbers in names are those of the source. Each block holds one binder with its values, some of them ahead of it. Ends that are not written are not given here.

Experiments:
[1] = target: T1, Cy CD3ε/g; experiment: cell-ELISA on Ba/F3 cells expressing cynomolgus monkey CD3εγ, hybridoma culture supernatant (CM)
T1 construct: also called cynomolgus monkey CD3εγ on Ba/F3 cells
T1 epsilon: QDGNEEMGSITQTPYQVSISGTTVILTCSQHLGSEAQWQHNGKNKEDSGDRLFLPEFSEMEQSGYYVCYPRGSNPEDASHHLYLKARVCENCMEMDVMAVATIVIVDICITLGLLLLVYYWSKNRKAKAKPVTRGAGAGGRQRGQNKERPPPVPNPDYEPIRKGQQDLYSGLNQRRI
T1 gamma: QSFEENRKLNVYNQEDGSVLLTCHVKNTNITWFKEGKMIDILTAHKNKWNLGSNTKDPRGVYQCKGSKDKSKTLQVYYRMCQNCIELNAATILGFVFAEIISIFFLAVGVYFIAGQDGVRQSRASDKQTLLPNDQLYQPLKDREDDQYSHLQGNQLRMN

[2] = target: T2, hCD3ε/g; experiment: cell-ELISA on Ba/F3 cells expressing human CD3εγ, hybridoma culture supernatant (CM)
T2 construct: also called human CD3εγ on Ba/F3 cells

[3] = target: T3, biotin-labeled human CD154 (human, UniProt P29965 113-261, limits assumed, biotin-labeled); experiment: ECL competition: biotinylated CD154, CD3ε homodimer as competitor [2]
T3 construct: also called biotinylated human CD154
T3 sequence (looked up): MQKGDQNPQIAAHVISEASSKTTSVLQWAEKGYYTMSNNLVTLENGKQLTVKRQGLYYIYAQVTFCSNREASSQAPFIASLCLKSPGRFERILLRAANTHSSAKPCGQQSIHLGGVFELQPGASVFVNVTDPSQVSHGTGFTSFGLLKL

[4] = target: T4, human IgA-Fc with AviTag, biotinylated (human, UniProt P01876 123-333, limits assumed, biotinylated at the C-terminal AviTag sequence); experiment: ECL; biotinylated hIgA with CD3ε homodimer protein (competitor), ratio to the no-antigen well
T4 construct: also called hIgA; biotinylated human IgA

[5] = target: T4, human IgA-Fc with AviTag, biotinylated; experiment: ECL; biotinylated hIgA, ratio to the no-antigen well
[6] = target: T5, integrin αvβ3 (R&D Systems, Inc.) (human, UniProt P06756 31-992; P05106 27-718); experiment: ECL; integrin αvβ3 value without against with CD3ε homodimer protein (competitor)
[7] = target: T4, human IgA-Fc with AviTag, biotinylated; experiment: ECL; biotinylated hIgA, ratio to the no-antigen well; remark: listed apart in the source
[8] = target: T4, human IgA-Fc with AviTag, biotinylated; experiment: ECL; hIgA signal without against with CD3ε homodimer protein (competitor)
[9] = target: T6, biotin-labeled CD3ε peptide (also: biotin-labeled, site not given here); experiment: ECL; CD3 peptide as antigen, ratio to the no-antigen well
T6 construct: also called CD3 peptide; biotinylated CD3ε peptide
T6 peptide: QDGNEEMGGITQTPY

[10] = target: T4, human IgA-Fc with AviTag, biotinylated; experiment: ECL; hIgA value without against with integrin αvβ3 (competitor)
[11] = target: T5, integrin αvβ3 (R&D Systems, Inc.); experiment: ECL; integrin αvβ3 on plate with CD3ε homodimer protein (competitor), ratio to the integrin-free well
[12] = target: T5, integrin αvβ3 (R&D Systems, Inc.); experiment: ECL; integrin αvβ3 on plate, ratio to the integrin-free well
[13] = target: T4, human IgA-Fc with AviTag, biotinylated; experiment: ECL; biotinylated hIgA with integrin αvβ3 (competitor), ratio to the no-antigen well
[14] = target: T7, CD3ε homodimer protein (human, UniProt P07766 23-126, limits assumed); experiment: SPR (Biacore); CD3ε homodimer immobilized, one-arm antibody as analyte
T7 construct: also called human CD3ε homodimer protein; CD3e homodimer

B2: 154R5E11#3 (antibody, human IgG1, kappa, L234A L235A, N297A)
heavy: QVQLVESGGGLVQPGRSLRLSCAASGFTFSNAWMHWVRQAPGKGLEWVAQIKDRGNNYAAYYAESVKGRFTISRDDSKNSIYLQMNSLKTEDTAVYYCRYVHYGSYFFASFYFGVDIWGQGTAVTVSSASTKGPSVFPLAPSSKSTSGGTAALGCLVKDYFPEPVTVSWNSGALTSGVHTFPAVLQSSGLYSLSSVVTVPSSSLGTQTYICNVNHKPSNTKVDKKVEPKSCDKTHTCPPCPAPEAAGGPSVFLFPPKPKDTLMISRTPEVTCVVVDVSHEDPEVKFNWYVDGVEVHNAKTKPREEQYASTYRVVSVLTVLHQDWLNGKEYKCKVSNKALPAPIEKTISKAKGQPREPQVYTLPPSRCELTKNQVSLSCAVKGFYPSDIAVEWESNGQPENNYKTTPPVLDSDGSFFLVSKLTVDKSRWQQGNVFSCSVMHEALHNHYTQKSLSLSPDYKDDDDK
chain: EPKSSDKTHTCPPCPAPELLGGPSVFLFPPKPKDTLMISRTPEVTCVVVDVSHEDPEVKFNWYVDGVEVHNAKTKPREEQYNSTYRVVSVLTVLHQDWLNGKEYKCKVSNKALPAPIEKTISKAKGQPREPQVCTLPPSRDELTKNQVSLWCLVKGFYPSDIAVEWESNGQPENNYKTTPPVLDSDGSFFLYSKLTVDKSRWQQGNVFSCSVMHEALHNRYTQKSLSLSP
light: DIVMTQSPLSLPVTPGEPASISCRSSQSLVHSNRNTYLHWYQQKPGQAPRLLIYKVSNRFSGVPDRFSGSGSGTDFTLKISRVEAEDVGVYYCGQGTQVPYTFGQGTKLEIKRTVAAPSVFIFPPSDEQLKSGTASVVCLLNNFYPREAKVQWKVDNALQSGNSQESVTEQDSKDSTYSLSSTLTLSKADYEKHKVYACEVTHQGLSSPVTKSFNRGEC
notes: One-arm antibody
Relative ECL reaction (to no antigen coating), CD3ε[+] [3]: 1

B4: CE115HA000 V11L/D72A/L78I/D101Q with GGS inserted between Kabat 99 and 100 (antibody)
heavy: QVQLVESGGGLVQPGRSLRLSCAASGFTFSNAWMHWVRQAPGKGLEWVAQIKAKSNNYATYYAESVKGRFTISRADSKNSIYLQMNSLKTEDTAVYYCRYVHYGAGGSYYGVQAWGQGTTVTVSSASTKGPSVFPLAPSSKSTSGGTAALGCLVKDYFPEPVTVSWNSGALTSGVHTFPAVLQSSGLYSLSSVVTVPSSSLGTQTYICNVNHKPSNTKVDKKVEPKSCDKTHTCPPCPAPEAAGGPSVFLFPPKPKDTLMISRTPEVTCVVVDVSHEDPEVKFNWYVDGVEVHNAKTKPREEQYASTYRVVSVLTVLHQDWLNGKEYKCKVSNKALPAPIEKTISKAKGQPREPQVYTLPPSRCELTKNQVSLSCAVKGFYPSDIAVEWESNGQPENNYKTTPPVLDSDGSFFLVSKLTVDKSRWQQGNVFSCSVMHEALHNHYTQKSLSLSPDYKDDDDK
Fc: B2 chain
light: B2 light
notes: one-arm antibody
Kd [14]: 63.1 nM

B6: CE115HA000 V11L/D72A/L78I/D101Q, no insertion (antibody, human IgG1, kappa, L234A L235A, N297A, name in Kabat numbering)
heavy: QVQLVESGGGLVQPGRSLRLSCAASGFTFSNAWMHWVRQAPGKGLEWVAQIKAKSNNYATYYAESVKGRFTISRADSKNSIYLQMNSLKTEDTAVYYCRYVHYGAYYGVQAWGQGTTVTVSSASTKGPSVFPLAPSSKSTSGGTAALGCLVKDYFPEPVTVSWNSGALTSGVHTFPAVLQSSGLYSLSSVVTVPSSSLGTQTYICNVNHKPSNTKVDKKVEPKSCDKTHTCPPCPAPEAAGGPSVFLFPPKPKDTLMISRTPEVTCVVVDVSHEDPEVKFNWYVDGVEVHNAKTKPREEQYASTYRVVSVLTVLHQDWLNGKEYKCKVSNKALPAPIEKTISKAKGQPREPQVYTLPPSRCELTKNQVSLSCAVKGFYPSDIAVEWESNGQPENNYKTTPPVLDSDGSFFLVSKLTVDKSRWQQGNVFSCSVMHEALHNHYTQKSLSLSPDYKDDDDK
chain: B2 chain
light: B2 light
Kd [14]: 6.96 nM

B7: 154R5F08#1 (antibody, human IgG1, kappa, L234A L235A, N297A)
heavy: B2 heavy with R54K, N57Q, A60T, S105T, S110L, F111P, Y112A, A123T
chain: B2 chain
light: B2 light
notes: One-arm antibody
Relative ECL reaction (to no antigen coating), CD3ε[+] [3]: 13

B8: CE115HA000 / GLS3000 one-arm antibody (antibody, human IgG1, kappa, L234A L235A, N297A)
heavy: B6 heavy with L11V, A75D, I81L, Q110D
chain: B2 chain
light: B2 light
notes: one-arm antibody
Kd [14]: 110 nM

B9: 154R5F08#3 (antibody, human IgG1, kappa, L234A L235A, N297A)
heavy: B2 heavy with R54K, N57Q, A60T, F70Y, S105T, S110L, F111P, Y112A, A123T
chain: B2 chain
light: B2 light
notes: One-arm antibody
Relative ECL reaction (to no antigen coating), CD3ε[+] [3]: 10

Further lines, results first:

binding result [1]: binds
binding result [2]: binds
B1: CE#115 (antibody, V domains shown)
VH: EVQLVETGGSLVQPGKSLKLTCATSGFTFSNAWMHWVRQSPEKQLEWVAQIKAKSNNYATYYAESVKGRFTISRDDSKSNIYLQMNSLKEEDTAVYYCRYVHYGAYYGVDAWGQGTSVTVSS
VL: DVVMTQTPVSMSVSLGGQVSISCRSSQSLVHNNGNTYVSWYIQKPSQSPQLLIYKVSNRFSGISDRFSGSGSGTDFTLKISRVEPDDLGVYYCGQGTQDPYTFGAGTKLELK
notes: also called CE115, rat hybridoma culture supernatant

Value as compared with antigen-free well [4]: 1 fold
Value as compared with antigen-free well [5]: 3.9 fold
Amount of binding to integrin αvβ3 attenuated by CD3 [6]: 2.4 fold
Value as compared with antigen-free well [7]: 8 fold
Amount of binding to hIgA attenuated by CD3 [8]: 7.4 fold
Value as compared with antigen-free well [9]: 1410 fold
Amount of binding to hIgA attenuated by integrin αvβ3 [10]: 2.5 fold
Value as compared with integrin αvβ3-free well [11]: 185 fold
Value as compared with integrin αvβ3-free well [12]: 438 fold
Value as compared with antigen-free well [13]: 1.6 fold
B3: IGAR6(2)B02H1 (antibody, human IgG1, kappa, L234A L235A, N297A)
heavy: QVQLVESGGGLVQPGRSLRLSCAASGFTFSNAWMHWVRQAPGKGLEWVAQIKDKGQQYAAYYAPSVKGRFTISRDGCRGDCLDSKNSIYLQMNSLKTEDTAVYYCRYVHYQTYSDGSFYFGVDAWGQGTTVTVSSASTKGPSVFPLAPSSKSTSGGTAALGCLVKDYFPEPVTVSWNSGALTSGVHTFPAVLQSSGLYSLSSVVTVPSSSLGTQTYICNVNHKPSNTKVDKKVEPKSCDKTHTCPPCPAPEAAGGPSVFLFPPKPKDTLMISRTPEVTCVVVDVSHEDPEVKFNWYVDGVEVHNAKTKPREEQYASTYRVVSVLTVLHQDWLNGKEYKCKVSNKALPAPIEKTISKAKGQPREPQVYTLPPSRCELTKNQVSLSCAVKGFYPSDIAVEWESNGQPENNYKTTPPVLDSDGSFFLVSKLTVDKSRWQQGNVFSCSVMHEALHNHYTQKSLSLSPDYKDDDDK
chain: B2 chain
light: B2 light
notes: One-arm antibody

Value as compared with antigen-free well [4]: 1 fold
Value as compared with antigen-free well [5]: 15.6 fold
Amount of binding to integrin αvβ3 attenuated by CD3 [6]: 1 fold
Value as compared with antigen-free well [7]: 20 fold
Amount of binding to hIgA attenuated by CD3 [8]: 23.4 fold
Value as compared with antigen-free well [9]: 910 fold
Amount of binding to hIgA attenuated by integrin αvβ3 [10]: 1 fold
Value as compared with integrin αvβ3-free well [11]: 0.8 fold
Value as compared with integrin αvβ3-free well [12]: 0.8 fold
Value as compared with antigen-free well [13]: 15.9 fold
B5: IGAR6(2)B02 (antibody, human IgG1, kappa, L234A L235A, N297A)
heavy: QVQLVESGGGLVQPGRSLRLSCAASGFTFSNAWMHWVRQAPGKGLEWVAQIKDKGQQYAAYYAPSVKGRFTISRDDSKNSIYLQMNSLKTEDTAVYYCRYVHYQTYSDGSFYFGVDAWGQGTTVTVSSASTKGPSVFPLAPSSKSTSGGTAALGCLVKDYFPEPVTVSWNSGALTSGVHTFPAVLQSSGLYSLSSVVTVPSSSLGTQTYICNVNHKPSNTKVDKKVEPKSCDKTHTCPPCPAPEAAGGPSVFLFPPKPKDTLMISRTPEVTCVVVDVSHEDPEVKFNWYVDGVEVHNAKTKPREEQYASTYRVVSVLTVLHQDWLNGKEYKCKVSNKALPAPIEKTISKAKGQPREPQVYTLPPSRCELTKNQVSLSCAVKGFYPSDIAVEWESNGQPENNYKTTPPVLDSDGSFFLVSKLTVDKSRWQQGNVFSCSVMHEALHNHYTQKSLSLSPDYKDDDDK
chain: B2 chain
light: B2 light
notes: One-arm antibody; also called IGA6 (2) B02; IGAR6(2)B02#1
